Values quoted from earlier work as cited in article PMC2582146 (Biochemistry, 2008).

Biological target: N1P1 domain
Settings: read-out: affinity

Kd: 298 nM
B1: C-terminal 70 residues of CFTR: C-terminal 70 residues of CFTR, literature construct (ref 41) (protein, UniProt P13569 1411-1480, looked up, fragment)
chain: QQFLVIEENKVRQYDSIQKLLNERSLFRQAISPSDRVKLFPHRNSSKCKSKPQIAALKEETEEEVQDTRL
